What was measured:
[1] = target: T1, SARS-CoV-2 spike HexaPro (S) (SARS-CoV-2, Wuhan-Hu-1, UniProt P0DTC2, stabilised); test: ELISA
[2] = target: T1, SARS-CoV-2 spike HexaPro (S); test: cryo-EM structure

B1: psNb 2-31 (VHH)
VHH: QVQLVESGGGLVQAGESLRLSCAASKPTFRNFAAGWFRQTPGKDREFVAVIEYDGDSAYYADSVKGRFTISRDNAKNTVYLQMNRLKPGDTAVYICAIGGNHYDPSKYYTADEYDYWGQGTQVTVSS
Q: Does B1 bind [1]?
A: Result: binds

B2: psNb 1-23 (VHH)
VHH: QVQLVESGGGLVQAGGSLRLSCAASGRTDSISDMGWFRQAPGKEREFVAVVGWSGGGTDYAHSVKGRFTISRDNAKNTVYLQMNSLKPEDTAVYYCAVGSLRVGSFSVEYWGQGTQVTVSS
Q: Does B2 bind [2]?
A: Result: binds

B3: psNb 2-45 (VHH)
VHH: QVQLVESGGGLVQAGGSLRLSCTASGYDFSILAIAWYRQAPGKERELVAAISRVGSTDYADSVKGRFTISRDNTKNTVSLQMDSLKPEDTAVYYCNAGIPMTTVLSGLGFWGQGTQVTVSS
Q: Does B3 bind [2]?
A: Result: binds

B4: psNb 1-21 (VHH)
VHH: HVQLVESGGGLVQAGGSLRLSCAAPGRTFSTSAMGWFRQAPGKEREFVAAIDWSNTNIHYADTVKGRFTISTDTAKNTVYLQMNNLKPEDTAVYYCAQGGWGLTQPISVDYWGKGTQVTVSS
Q: Does B4 bind [1]?
A: Result: binds

B5: psNb 2-34 (VHH)
VHH: HVQLVESGGGLVQAGGSLRLSCAASGRTFSRYAAGWFRQAPGKEREFVAVIEWDGDSAYYADPVKGRFTISRDNAKNTVYLQMNRLKPEDTAVYICAVGGNHYSRSKYYNLDEYDDWGQGTQVTVSS
Q: Does B5 bind [2]?
A: Result: binds

B6: psNb 2-38 (VHH)
VHH: QVQLVESGGGLVQAGGSLRLSCAAAARFSTSAMGWFRQAPGKEREFVAAISWSNTNTHYADTVKGRFTISADTAKETVDLQMNSLKPEDTAVYYCVQGGWGIRQPIIVDYWGKGTQVTVSS
Q: Does B6 bind [2]?
A: Result: binds

B7: psNb 2-65 (VHH)
VHH: HVQLVESGGGLVQAGGSLRLSCAASGTISTLNAMGWYRQAPGKQRELLASISNLGTTYHADSVAGRFTISRGSAKNTVNLQMNSLKPDDTAVYYCNTRVLEGGTQIRDYWGQGTQVTVSS
Q: Does B7 bind [2]?
A: Result: binds

B8: psNb 1-25 (VHH)
VHH: HVQLVESGGGLVQAGGSLRLSCATSGRTFSTYRMSWFRQAPGKEREFVATIIWSVGSTHYADSVKGRFTISRDNAKNMVYLQMNSLKPEDTAVYYCAAQRSDSSSWGYEDDYDYWGQGTQVTVSS
Q: Does B8 bind [1]?
A: Result: binds

B9: psNb 2-67 (VHH)
VHH: EVQLVESGGGLVQTGGSLRLSCALSGYTFSIFPTAWFRQAPGKEREFVAGIRWNGSTRDYTEYADFVKGRFTISRDNAKNMVYLQMISLKPEDTALYYCAASDGVIDGTNANAYRYWGQGTQVTVSS
Q: Does B9 bind [1]?
A: Result: binds

B10: psNb 1-22 (VHH)
VHH: HVQLVESGGGLVQPGGSLRLSCAASGRSFNSYLMGWFRQAPGKEREFVAWISGSPHDIIRYRDSVKDRFTISRDNAKNTVYLQMNSLKPVDTAVYYCAVGSLRVGSFSPDYWGQGTQVTVSS
Q: Does B10 bind [2]?
A: Result: binds

B11: psNb 2-57 (VHH)
VHH: QVQLVESGGGLVQAGGSLRLSCAVSGRTISTFGMGWFRQAPGKEREFVATITRDEDMLLYADSVKGRFTISRDTAKNMVFLQMNSLKIEDTALYYCAVRRDSSWGYSRQSTEYDYWGQGTQVTVSS
Q: Does B11 bind [2]?
A: Result: binds
